The values below come from PMC6745501, “Plant photoreceptors and their signaling components compete for COP1 binding via VP peptide motifs” (The EMBO Journal, 2019).

This assay has as its target UVR8^HY5C44 chimera (recombinant) (Arabidopsis). The assay is described as follows: SEC; purified recombinant chimeric UVR8 proteins alone, in the absence of UV-B.

A word on the stoichiometry N: it is the number of molecules, sites or subunits per partner or assembly. As to UVR8^HY5C44 chimera (recombinant), the stoichiometry N was determined as 2.
